“Also recorded” adds a separate entry of the source.
Experiments:
HeLa cells = assay: PARP-1 cleavage by SDS-PAGE and Western blotting after transfection of mRNAs encoding SQT-BH3 constructs; assay type: cell-based; details: from anti-FLAG and anti-GFP Western blotting
Source text: The cleavage of PARP-1 was detected by the appearance of a faster-migrating band and concomitant loss of the full-length band by SDS-PAGE and Western blotting. Western blotting with anti-actin antibodies served as a loading control.

MCL-1 = target: T1, MCL-1 (Homo sapiens, UniProt Q07820); assay: Co-immunoprecipitation in lysates of transfected HeLa cells; assay type: binding; details: lysates of HeLa cells transfected with mRNAs
T1 construct: performed in lysates of HeLa cells transfected with mRNAs encoding SQT-BH3 constructs; endogenous in cells; host or cells: HeLa
T1 sequence (Q07820 whole entry): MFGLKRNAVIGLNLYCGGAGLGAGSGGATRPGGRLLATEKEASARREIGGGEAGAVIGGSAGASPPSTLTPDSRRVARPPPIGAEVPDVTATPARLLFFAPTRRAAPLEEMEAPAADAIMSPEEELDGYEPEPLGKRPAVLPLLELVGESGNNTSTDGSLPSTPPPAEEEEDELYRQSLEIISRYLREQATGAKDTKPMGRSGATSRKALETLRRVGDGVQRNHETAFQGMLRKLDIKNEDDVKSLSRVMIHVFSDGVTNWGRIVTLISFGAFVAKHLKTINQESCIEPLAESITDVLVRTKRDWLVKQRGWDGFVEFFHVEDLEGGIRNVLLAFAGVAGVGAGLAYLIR

Hep3B cells [1] = assay: Cell death by YOYO-3 with MC3-formulated LNPs; assay type: cell-based; details: relatively high concentration
Method: The efficacy of mRNAs encoding SQT-BH3 constructs in inducing cell death was tested both in hepatocellular carcinoma cell lines as well as in primary hepatocytes using lipid nanoparticle (LNP)-formulated constructs. Hep3B cells were treated with varying doses (0.78 ng to 50 ng) of MC3-formulated LNPs in the presence of YOYO-3 (Life Technologies), a DNA dye that is taken up preferentially by dead cells that is used to measure the extent of cell death. MC3 lipid nanoparticles included MC3 50%, DSPC 10%, Cholesterol 38.5%, PEG-DMG 1.5%, N:P ˜5.5.

Hep3B cells [2] = assay: Sorafenib combination, YOYO-3 apoptosis on IncuCyte ZOOM; assay type: cell-based
Method: To determine the effect of SQT-BH3 constructs in combination with the protein tyrosine kinase inhibitor Sorafenib on liver cells, 20,000 Hep3B cells/well in a 96 well plate were treated with increasing amounts of sorafenib tosylate (Selleck Chemicals) and transfected with LNPs containing SQT-PUMA-BH3 (68 pM) or SQT-Bad-BH3 (550pM).

Hep3B SC tumors = assay: Combination with sorafenib in SCID mice bearing Hep3B SC tumors; assay type: in vivo; details: mmRNA with miR122 binding site, 1.5 mg/kg IV weekly alone, three weeks, end of study
Method: SCID mice bearing Hep3B SC tumors (tumor size range 140-227 mm^3; average=183 mm^3) were dosed over a three week period with a combination of 0.5% methyl cellulose daily and SQT IV at 1.5 mg/kg alone weekly (Days 1, 8 and 15; Group 1), Sorafenib (in 0.5% methyl cellulose) at 10 mg/kg orally daily alone (Group 2), mmRNA encoding SQT-PUMA-BH3 (comprising a miR122 binding site) weekly at 1.5 mg/kg IV alone (Group 3) or a combination of mmRNA encoding SQT-PUMA-BH3 (with miR122 binding site) at 1.5 mg/kg IV weekly with sorafenib at 10 mg/kg orally daily (Group 4; 10 animals per group).

systemic HEL xenografts = assay: Systemic HEL xenografts in SCID mice (AML model); assay type: in vivo
Method: LNPs comprising the cationic lipid MC3 were tested using the optimal percentage of PEG-lipid and optimal PEG length (1.5% DSPE, C18, as described in Example 8), for in vivo targeted delivery of SQT-PUMA-BH3 in two different in vivo models of acute myeloid leukemia (AML). One model used systemic TF1a xenografts in SCID mice. The other model used systemic HEL xenografts in SCID mice. Each of these models uses a human erythroleukemia cell line. The HEL erythroleukia cell line is described in, for example, Martin, P. and Papayannopoulou, T. (1982) Science 216:1233-1235. The TF1 erythroleukmia cell line (from which TF1a is derived) is described in, for example, Kitamura, T. et al. (1989) J. Cell. Physiol. 140:323-334. Unless otherwise noted, mRNAs were fully modified with N1-methlypseudouridine to avoid stimulating an innate immune response to said mRNAs when administered in vivo.
In a second set of experiments, HEL cells stably expressing luciferase (HEL-luc cells) were implanted systemically in SCID mice. Tumor growth was measured by whole body bioluminescent imaging (BLI) in anaesthetized animals following SC injection of 150 mg/kg D-Luciferin, in an imaging chamber (Spectrum CT). […] Mice were dosed intravenously at days 28 and 36 and tumor burden was assessed by BLI on days 33, 36, 40 and 43.

systemic TF1a tumors = assay: Repeat study in the TF1a-SCID model with survival endpoint; assay type: in vivo
Method: In this repeat study, tumor growth inhibition (TGI) was the primary efficacy over the first 4 weeks of the study and survival was the primary efficacy endpoint over the second 4 weeks of the study. […] Animals were dosed as follows: PBS (0.1 ml/20 g one time per week) IV (Group 1), cytarabine IV at 2 mg/kg three times per week (Group 2), LNPs containing mRNA encoding Green Fluorescent Protein (GFP) at 3 mg/kg one time per week (Group 3) and LNPs containing mRNA encoding SQT-PUMA-BH3 (comprising a miR122 binding site) at 3 mg/kg one time per week (Group 4).
Mice were dosed intravenously for four weeks, with animals in Group 4 being dosed for eight weeks (i.e., weekly dosing up to eight weeks).
In this repeat study, tumor growth inhibition (TGI) was again used as a primary endpoint to quantify efficacy with BLI being used as a surrogate for tumor burden. Bioluminescence Imaging (BLI) was measured weekly out to at least Day 61 post disease induction. The mean BLI results at Day 33 and Day 61 are shown in FIGS. 23A and 23B, respectively.
The survival of the mice over eight weeks was monitored and the percent survival of the mice in the study was assessed.

primary hepatocytes = details: 10uM sorafenib tosylate, 24 hours after treatment
Method: Controls were an empty SQT construct (“SQT-dummy”), a non-targeting siRNA and PBS. For treatment of Hep3B cells, 20,000 Hep3B cells/well per plated in 96-well plates. At Day 1, some wells were transfected with siMCL1 (Dharmacon, ON-TARGETplus Human MCL1 (4170) siRNA-SMARTpool, # L-004501-00-0005) or non-targeting siRNA (ON-TARGETplus Non-targeting Control Pool, # D-001810-10-05). […] 24 hours after treatment, YOYO®-3 iodide (Life Technologies) viability dye was added to each well and cell death was measured on an IncuCyte ZOOM® using YOYO-3 fluorescence as a readout (=“Apoptosis”). For treatment of primary hepatocytes, 18,000 mouse hepatocytes (Gibco) were seeded in each well of a 96-well plate. At Day 1, some wells were transfected with siMCL1 (Dharmacon, SMARTpool: ON-TARGETplus Mc11 siRNA, # L-062229-00-0005) or non-targeting siRNA (ON-TARGETplus Non-targeting Control Pool, # D-001810-10-05). […] 24 hours after treatment, Caspase 3/7 reagent (EssenBio) apoptosis dye was added to each well and cell death was measured on an IncuCyte ZOOM® using the caspase 3/7 reagent fluorescence as a readout (=“Apoptosis”).

B1: SQT-PUMA-BH3: mRNA (SEQ ID NO: 49, FLAG) encoding SQT scaffold with PUMA BH3 domain in N-terminus, fully modified with 1-methyl-pseudouridine (nucleic acid)
chain: ATGATCCCAAGAGAAGAACAGTGGGCACGCGAAATTGGAGCTCAACTCAGACGGATGGCCGACGACCTGAACGCCCAGTACGAGCGGCGGGGACTCTCAGAAGCGAAGCCTGCCACCCCCGAAATCCAGGAAATCGTCGACAAGGTCAAGCCGCAGCTTGAGGAAAAGACCAACGAGACTTACGGAAAACTGGAGGCCGTGCAGTATAAGACCCAAGTGTTGGCCTCCACCAACTACTACATTAAGGTCCGCGCCGGCGATAACAAGTACATGCACCTGAAGGTGTTCAATGGTCCTCCGGGACAGAACGCGGACAGGGTGCTGACTGGCTACCAAGTGGACAAGAACAAGGACGACGAGCTGACGGGCTTCGACTACAAGGATGATGATGACAAA
modifications: FLAG tag, 1-methyl-pseudouridine; Synthetic SQT-PUMA-BH3 mRNA sequence with FLAG epitope tag
In the case of B1, the “cell death of transfected cells” value (HeLa cells) is reported as “underwent cell death”, the “co-immunoprecipitation of MCL-1” value (MCL-1) is reported as “able to co-immunoprecipitate” and the “apoptosis and cell death (YOYO-3)” value (Hep3B cells [1]) is reported as “both induced apoptosis and cell death; also recorded: kills Hep3B cells at higher concentrations”. For the same molecule, the “efficacy and timing of cell killing, comparison” value (Hep3B cells [1]) was “showed a modest increase in both the efficacy and timing of cell killing compared to SQT-Bim-BH3”, the “nature of combination effect with sorafenib” value (Hep3B cells [2]; SQT-PUMA-BH3 68 pM or SQT-Bad-BH3 550pM) was “synergistic effect” and the “apoptosis (YOYO-3), combination with sorafenib vs sorafenib alone” value (Hep3B cells [2]; SQT-PUMA-BH3 68 pM or SQT-Bad-BH3 550pM in LNPs, increasing sorafenib tosylate) was “increased apoptosis of the liver cells as compared to treatment with sorafenib alone”. The “tumor growth inhibition (TGI)” value (Hep3B SC tumors) was 28%, the “tumor growth inhibition (TGI), BLI” value (systemic HEL xenografts; 1.5 mg/kg IV at days 28 and 36, by days 40 and 43) was “exhibited greater tumor growth inhibition (TGI) as compared to the mice treated with the PBS or GFP controls” and the “tumor growth inhibition (TGI), BLI” value (systemic HEL xenografts; 3 mg/kg IV at days 28 and 36, at day 33) was “already exhibited significantly greater tumor growth inhibition than the mice treated with the PBS or GFP controls”. The “percent body weight change / tolerability” value (systemic TF1a tumors) was “did not significantly impact body weight”, the “tumor growth (BLI)” value (systemic TF1a tumors; 3 mg/kg one time per week, 3 mg/kg) was “showed marked tumor growth regression as compared to both PBS and LNP controls; also recorded: most effective treatment for inhibiting tumor growth, showing greater efficacy than the cytarabine SOC control” and the median survival (systemic TF1a tumors; post-implant, 3 mg/kg one time per week) was “median survival had not yet been reached”. The “apoptosis (caspase 3/7) in combination with siMCL1, sorafenib or controls” value (primary hepatocytes) was “did not lead to increased apoptosis as compared to treatment with the control SQT-dummy construct”.
